Data on six molecules can be found in PMC12623744 (Scientific Reports, 2025).

Positions of bridges follow the written chain, without caps; N, C: chain ends. Non-standard residues stand in square brackets, D forms with d. Residues, ends and D or L forms follow the SMILES beside them. Nle = CCCC[C@H](N)C(=O)O

One test concerns HVEM/LIGHT complex. The experiment in a line: Competitive ELISA, inhibition of HVEM/LIGHT complex formation. Type of test: biochemical, human. The following applies: across all tested concentrations (50, 12.5, 3.125 µM). The protocol:
To assess the inhibitory properties of the peptides the ELISA was conducted. Based on the obtained results, it can be concluded that the inhibitory properties of the peptides are strongly correlated with their affinity to HVEM as determined by theoretical methods, as well as with those measured by SpS.
ELISA was conducted using transparent polystyrene 96-well plates (Brand, Wertheim, Germany). Wells were coated with HVEM-His protein at concentration 6 µg/mL dissolved in PBS-T (100 µL per well) and incubated overnight at 4 °C. Unbound sites on the wells by HVEM were blocked with 5% bovine serum albumin (BSA) in PBS-T (200 µL per well). Peptides at three concentrations 50 µM, 12.5 µM, and 3.125 µM dissolved in PBS-T were added and incubated (200 µL per well). […] In the next step horseradish peroxidase (HRP)-conjugated goat antibody (Bio-Rad, Hercules, USA) at dilution 1:3000 in PBS-T (100µL per well) was applied. After each step, wells were washed five times with 200 µL of PBS-T. Incubations were carried out at 37 °C for 2 h, except for the antibody, which was incubated for 1 h. Finally, 200 µL of TMB substrate (Thermo Fisher Scientific,Waltham, MA, USA) was added, and after 15 min of incubation in the dark, absorbance was measured at 492 nm and 650 nm using an Infinite M200 Pro reader (Tecan, Switzerland). The negative control consisted of PBS-T buffer without peptides, while the positive control was mouse anti-human HVEM antibodies (1 µg/well, Bio-Rad, Hercules, CA, USA; #MCA6072GA). Each experiment was performed in three biological replicates, each consisting of three technical replicates and data were analyzed using one-way ANOVA with Dunnett’s post-hoc test in GraphPad Prism (San Diego, USA).

For another test, the target named is T1, HVEM-His protein (UniProt Q92956 39-202, labelled with RED-tris-NTA 2nd Generation dye on the His tag (spectral shift only)).
T1 construct: Herpes virus entry mediator (HVEM); No catalogue number printed; also called herpes virus entry mediator; source: bought: ACROBiosystems
T1 sequence (looked up): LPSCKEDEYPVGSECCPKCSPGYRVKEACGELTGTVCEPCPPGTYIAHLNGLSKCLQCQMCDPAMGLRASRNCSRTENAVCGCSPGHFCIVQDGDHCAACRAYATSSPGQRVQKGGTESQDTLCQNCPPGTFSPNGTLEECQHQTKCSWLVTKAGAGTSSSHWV
The experiment in a line: spectral shift (SpS); Monolith X; HVEM-His labelled with His-Tag Labeling Kit RED-tris-NTA 2nd Generation, final 50 nM; peptides 2 µM to 6.1 pM; PBS-T (0.05% Tween-20, 0.3 M NaCl, pH 7.4); fluorescence ratio 670/650 nm; 25 °C; apparent Kd (peptides aggregated at higher concentrations). The note with it: both partners purified.

Turning to `CC[C@H](C)[C@H](NC(=O)[C@@H](NC(C)=O)[C@@H](C)O)C(=O)N[C@H]1CSSC[C@@H](C(=O)N[C@@H](CCC(N)=O)C(=O)N[C@@H](CO)C(N)=O)NC(=O)[C@H](CO)NC(=O)[C@H](C(C)C)NC(=O)[C@H](CC(C)C)NC(=O)[C@H](CC(C)C)NC(=O)[C@H](CCC(=O)O)NC(=O)[C@H](CC(C)C)NC(=O)[C@H](CCC(=O)O)NC(=O)[C@H](CCC(=O)O)NC(=O)[C@@H]2CCCN2C(=O)[C@H](Cc2ccc(O)cc2)NC(=O)[C@H](CCCNC(=N)N)NC(=O)[C@@H]2CCCN2C(=O)[C@H]([C@@H](C)O)NC(=O)[C@H](CCCNC(=N)N)NC(=O)[C@H](CCCCN)NC(=O)[C@H](Cc2ccc(O)cc2)NC(=O)[C@H](CC(C)C)NC(=O)CNC(=O)[C@H](Cc2c[nH]cn2)NC1=O` [light4] (Ac-TICHGLYKRTPRYPEELELLVSCQS-NH2; disulfide 3-23), the “inhibition of HVEM/LIGHT complex formation” value with HVEM/LIGHT complex is “below 10%”.

B1: light2 (peptide)
peptide: Ac-ECGEEVVVRVLDERLVRLRDGTRSYFGAFCV-NH2
modifications: disulfide 2-30
SMILES: CC(=O)N[C@@H](CCC(=O)O)C(=O)N[C@H]1CSSC[C@@H](C(=O)N[C@H](C(N)=O)C(C)C)NC(=O)[C@H](Cc2ccccc2)NC(=O)[C@H](C)NC(=O)CNC(=O)[C@H](Cc2ccccc2)NC(=O)[C@H](Cc2ccc(O)cc2)NC(=O)[C@H](CO)NC(=O)[C@H](CCCNC(=N)N)NC(=O)[C@H]([C@@H](C)O)NC(=O)CNC(=O)[C@H](CC(=O)O)NC(=O)[C@H](CCCNC(=N)N)NC(=O)[C@H](CC(C)C)NC(=O)[C@H](CCCNC(=N)N)NC(=O)[C@H](C(C)C)NC(=O)[C@H](CC(C)C)NC(=O)[C@H](CCCNC(=N)N)NC(=O)[C@H](CCC(=O)O)NC(=O)[C@H](CC(=O)O)NC(=O)[C@H](CC(C)C)NC(=O)[C@H](C(C)C)NC(=O)[C@H](CCCNC(=N)N)NC(=O)[C@H](C(C)C)NC(=O)[C@H](C(C)C)NC(=O)[C@H](C(C)C)NC(=O)[C@H](CCC(=O)O)NC(=O)[C@H](CCC(=O)O)NC(=O)CNC1=O
notes: Fragment 210-240 of LIGHT with two residues substituted by cysteines for a disulfide bond; also called peptide 2; source: synthetic peptide (SPPS, RP-HPLC; disulfide bond formed by air oxidation)
As for B1, the Kd with HVEM-His protein was 1380 nM.

B2: light1 (peptide)
peptide: Ac-EAGEEVVCRVLDERLVRLRDGTRSYCGAF[Nle]V-NH2
modifications: disulfide 8-26
SMILES: CCCC[C@H](NC(=O)[C@H](Cc1ccccc1)NC(=O)[C@H](C)NC(=O)CNC(=O)[C@@H]1CSSC[C@H](NC(=O)[C@@H](NC(=O)[C@@H](NC(=O)[C@H](CCC(=O)O)NC(=O)[C@H](CCC(=O)O)NC(=O)CNC(=O)[C@H](C)NC(=O)[C@H](CCC(=O)O)NC(C)=O)C(C)C)C(C)C)C(=O)N[C@@H](CCCNC(=N)N)C(=O)N[C@@H](C(C)C)C(=O)N[C@@H](CC(C)C)C(=O)N[C@@H](CC(=O)O)C(=O)N[C@@H](CCC(=O)O)C(=O)N[C@@H](CCCNC(=N)N)C(=O)N[C@@H](CC(C)C)C(=O)N[C@@H](C(C)C)C(=O)N[C@@H](CCCNC(=N)N)C(=O)N[C@@H](CC(C)C)C(=O)N[C@@H](CCCNC(=N)N)C(=O)N[C@@H](CC(=O)O)C(=O)NCC(=O)N[C@@H]([C@@H](C)O)C(=O)N[C@@H](CCCNC(=N)N)C(=O)N[C@@H](CO)C(=O)N[C@@H](Cc2ccc(O)cc2)C(=O)N1)C(=O)N[C@H](C(N)=O)C(C)C
notes: Fragment 210-240 of LIGHT with two residues substituted by cysteines for a disulfide bond; the synthesized peptide has norleucine there; also called peptide 1; source: synthetic peptide (SPPS, RP-HPLC; disulfide bond formed by air oxidation)
As for B2, the Kd with HVEM-His protein is 1680 nM.

B3: light3 (peptide)
peptide: Ac-TCTHGLYKRTPRYPEELELLVSQCS-NH2
modifications: disulfide 2-24
SMILES: CC(=O)N[C@H](C(=O)N[C@H]1CSSC[C@@H](C(=O)N[C@@H](CO)C(N)=O)NC(=O)[C@H](CCC(N)=O)NC(=O)[C@H](CO)NC(=O)[C@H](C(C)C)NC(=O)[C@H](CC(C)C)NC(=O)[C@H](CC(C)C)NC(=O)[C@H](CCC(=O)O)NC(=O)[C@H](CC(C)C)NC(=O)[C@H](CCC(=O)O)NC(=O)[C@H](CCC(=O)O)NC(=O)[C@@H]2CCCN2C(=O)[C@H](Cc2ccc(O)cc2)NC(=O)[C@H](CCCNC(=N)N)NC(=O)[C@@H]2CCCN2C(=O)[C@H]([C@@H](C)O)NC(=O)[C@H](CCCNC(=N)N)NC(=O)[C@H](CCCCN)NC(=O)[C@H](Cc2ccc(O)cc2)NC(=O)[C@H](CC(C)C)NC(=O)CNC(=O)[C@H](Cc2c[nH]cn2)NC(=O)[C@H]([C@@H](C)O)NC1=O)[C@@H](C)O
notes: Residues 161-185 of LIGHT with two residues substituted by cysteines for a disulfide bond; also called peptide 3; source: synthetic peptide (SPPS, RP-HPLC; disulfide bond formed by air oxidation)
B3: in the test with HVEM-His protein, the Kd amounted to 580 nM.

B4: light3_E178L (peptide)
peptide: Ac-TCTHGLYKRTPRYPEELLLLVSQCS-NH2
modifications: disulfide 2-24
SMILES: CC(=O)N[C@H](C(=O)N[C@H]1CSSC[C@@H](C(=O)N[C@@H](CO)C(N)=O)NC(=O)[C@H](CCC(N)=O)NC(=O)[C@H](CO)NC(=O)[C@H](C(C)C)NC(=O)[C@H](CC(C)C)NC(=O)[C@H](CC(C)C)NC(=O)[C@H](CC(C)C)NC(=O)[C@H](CC(C)C)NC(=O)[C@H](CCC(=O)O)NC(=O)[C@H](CCC(=O)O)NC(=O)[C@@H]2CCCN2C(=O)[C@H](Cc2ccc(O)cc2)NC(=O)[C@H](CCCNC(=N)N)NC(=O)[C@@H]2CCCN2C(=O)[C@H]([C@@H](C)O)NC(=O)[C@H](CCCNC(=N)N)NC(=O)[C@H](CCCCN)NC(=O)[C@H](Cc2ccc(O)cc2)NC(=O)[C@H](CC(C)C)NC(=O)CNC(=O)[C@H](Cc2c[nH]cn2)NC(=O)[C@H]([C@@H](C)O)NC1=O)[C@@H](C)O
notes: Analogue of light3 (residues 161-185 of LIGHT with two cysteines for a disulfide bond) in which glutamic acid 178 was replaced by leucine; source: synthetic peptide (SPPS, RP-HPLC; disulfide bond formed by air oxidation)
In the case of B4, the Kd with HVEM-His protein is 710 nM.

B5: light4 (peptide)
peptide: Ac-TICHGLYKRTPRYPEELELLVSCQS-NH2
modifications: disulfide 3-23
SMILES: CC[C@H](C)[C@H](NC(=O)[C@@H](NC(C)=O)[C@@H](C)O)C(=O)N[C@H]1CSSC[C@@H](C(=O)N[C@@H](CCC(N)=O)C(=O)N[C@@H](CO)C(N)=O)NC(=O)[C@H](CO)NC(=O)[C@H](C(C)C)NC(=O)[C@H](CC(C)C)NC(=O)[C@H](CC(C)C)NC(=O)[C@H](CCC(=O)O)NC(=O)[C@H](CC(C)C)NC(=O)[C@H](CCC(=O)O)NC(=O)[C@H](CCC(=O)O)NC(=O)[C@@H]2CCCN2C(=O)[C@H](Cc2ccc(O)cc2)NC(=O)[C@H](CCCNC(=N)N)NC(=O)[C@@H]2CCCN2C(=O)[C@H]([C@@H](C)O)NC(=O)[C@H](CCCNC(=N)N)NC(=O)[C@H](CCCCN)NC(=O)[C@H](Cc2ccc(O)cc2)NC(=O)[C@H](CC(C)C)NC(=O)CNC(=O)[C@H](Cc2c[nH]cn2)NC1=O
notes: Residues 161-185 of LIGHT with two residues substituted by cysteines for a disulfide bond; also called peptide 4; source: synthetic peptide (SPPS, RP-HPLC; disulfide bond formed by air oxidation)
Take B5: the Kd with HVEM-His protein stood at 1720 nM.
